Laboratory results taken from the Immune Epitope Database (IEDB).

Columns and labels:
[1] = biological target: HLA-C*08:02; assay: IEDB peptide-MHC binding, purified MHC/direct/fluorescence; filed as Kd, often an IC50 or EC50 that approximates it; ≥ and ≤ were set here for values at or beyond the usual limits of such assays; settings: source organism: Entamoeba histolytica HM-1:IMSS
[2] = biological target: HLA-A*01:01; assay: as above; settings: source organism: Entamoeba histolytica
[3] = biological target: HLA-A*02:12; assay: as above; settings: source organism: Entamoeba histolytica HM-1:IMSS
[4] = biological target: HLA-C*15:02; assay: as above; settings: source organism: Entamoeba histolytica HM-1:IMSS
[5] = biological target: HLA-A*02:06; assay: as above; settings: source organism: Entamoeba histolytica HM-1:IMSS
[6] = biological target: HLA-A*69:01; assay: as above; settings: source organism: Entamoeba histolytica
[7] = biological target: HLA-B*07:02; assay: as above; settings: source organism: Entamoeba histolytica
[8] = biological target: HLA-B*44:02; assay: as above; settings: source organism: Entamoeba histolytica
[9] = biological target: HLA-A*24:02; assay: as above; settings: source organism: Entamoeba histolytica
[10] = biological target: HLA-A*02:01; assay: as above; settings: source organism: Entamoeba histolytica
[11] = biological target: HLA-B*15:01; assay: as above; settings: source organism: Entamoeba histolytica
[12] = biological target: HLA-A*02:11; assay: as above; settings: source organism: Entamoeba histolytica HM-1:IMSS
[13] = biological target: HLA-A*02:19; assay: as above; settings: source organism: Entamoeba histolytica HM-1:IMSS
[14] = biological target: HLA-B*18:01; assay: as above; settings: source organism: Entamoeba histolytica
[15] = biological target: HLA-A*03:01; assay: as above; settings: source organism: Entamoeba histolytica
[16] = biological target: HLA-B*40:01; assay: as above; settings: source organism: Entamoeba histolytica
[17] = biological target: HLA-B*58:01; assay: as above; settings: source organism: Entamoeba histolytica
[18] = biological target: HLA-A*02:03; assay: as above; settings: source organism: Entamoeba histolytica HM-1:IMSS
[19] = biological target: HLA-B*27:05; assay: as above; settings: source organism: Entamoeba histolytica
[20] = biological target: HLA-C*06:02; assay: IEDB peptide-MHC binding, purified MHC/competitive/fluorescence; filed as Kd, often an IC50 or EC50 that approximates it; ≥ and ≤ were set here for values at or beyond the usual limits of such assays; settings: source organism: Entamoeba histolytica HM-1:IMSS
[21] = biological target: HLA-A*02:50; assay: as above; settings: source organism: Entamoeba histolytica HM-1:IMSS
[22] = biological target: HLA-B*83:01; assay: as above; settings: source organism: Entamoeba histolytica HM-1:IMSS
[23] = biological target: HLA-B*45:06; assay: as above; settings: source organism: Entamoeba histolytica HM-1:IMSS
[24] = biological target: HLA-B*15:42; assay: as above; settings: source organism: Entamoeba histolytica HM-1:IMSS
[25] = biological target: HLA-A*03:19; assay: as above; settings: source organism: Entamoeba histolytica HM-1:IMSS
[26] = biological target: HLA-B*39:01; assay: as above; settings: source organism: Vibrio antiquarius
[27] = biological target: HLA-A*80:01; assay: as above; settings: source organism: Vibrio antiquarius
[28] = biological target: HLA-B*46:01; assay: as above; settings: source organism: Vibrio antiquarius
[29] = biological target: HLA-A*02:12; assay: as above; settings: source organism: Vibrio antiquarius
[30] = biological target: HLA-A*25:01; assay: as above; settings: source organism: Vibrio antiquarius
[31] = biological target: HLA-A*29:02; assay: as above; settings: source organism: Vibrio antiquarius
[32] = biological target: HLA-A*68:02; assay: as above; settings: source organism: Vibrio antiquarius
[33] = biological target: HLA-A*24:03; assay: as above; settings: source organism: Vibrio antiquarius
[34] = biological target: HLA-B*51:01; assay: as above; settings: source organism: Vibrio antiquarius
[35] = biological target: HLA-B*27:03; assay: as above; settings: source organism: Vibrio antiquarius
[36] = biological target: HLA-A*69:01; assay: as above; settings: source organism: Vibrio antiquarius
[37] = biological target: HLA-B*57:01; assay: as above; settings: source organism: Vibrio antiquarius
[38] = biological target: HLA-A*26:01; assay: as above; settings: source organism: Vibrio antiquarius
[39] = biological target: HLA-A*02:01; assay: as above; settings: source organism: Vibrio antiquarius
[40] = biological target: HLA-B*15:01; assay: as above; settings: source organism: Vibrio antiquarius
[41] = biological target: HLA-A*02:11; assay: as above; settings: source organism: Vibrio antiquarius
[42] = biological target: HLA-A*02:19; assay: as above; settings: source organism: Vibrio antiquarius
[43] = biological target: HLA-B*18:01; assay: as above; settings: source organism: Vibrio antiquarius
[44] = biological target: HLA-A*03:01; assay: as above; settings: source organism: Vibrio antiquarius
[45] = biological target: HLA-A*02:03; assay: as above; settings: source organism: Vibrio antiquarius
[46] = biological target: HLA-A*23:01; assay: as above; settings: source organism: Vibrio antiquarius
[47] = biological target: HLA-B*15:17; assay: as above; settings: source organism: Vibrio antiquarius

## KLMPGSIYV
[1]
  Kd: ≥ 20 µM
[2]
  Kd: ≥ 20 µM
[3]
  Kd: 0.002 µM
[4]
  Kd: 0.071 µM
[5]
  Kd: 0.002 µM
[6]
  Kd: 0.368 µM
[7]
  Kd: ≥ 20 µM
[8]
  Kd: ≥ 20 µM
[9]
  Kd: ≥ 20 µM
[10]
  Kd: 0.0062 µM
[11]
  Kd: 0.127 µM
[12]
  Kd: ≤ 0.001 µM
[13]
  Kd: ≤ 0.001 µM
[14]
  Kd: ≥ 20 µM
[15]
  Kd: 0.138 µM
[16]
  Kd: ≥ 20 µM
[17]
  Kd: ≥ 20 µM
[18]
  Kd: ≤ 0.001 µM
[19]
  Kd: ≥ 20 µM
[20]
  Kd: 1.17 µM
[21]
  Kd: ≤ 0.0001 µM
[22]
  Kd: ≥ 5 µM
[23]
  Kd: ≥ 5 µM
[24]
  Kd: ≥ 5 µM
[25]
  Kd: 0.109 µM

## SLTIPSFYT
[26]
  Kd: ≥ 20 µM
[27]
  Kd: ≥ 20 µM
[28]
  Kd: ≥ 20 µM
[29]
  Kd: ≥ 20 µM
[30]
  Kd: ≥ 20 µM
[31]
  Kd: ≥ 20 µM
[32]
  Kd: ≥ 20 µM
[33]
  Kd: ≥ 20 µM
[34]
  Kd: ≥ 20 µM
[35]
  Kd: ≥ 20 µM
[36]
  Kd: ≥ 20 µM
[37]
  Kd: ≥ 20 µM
[38]
  Kd: ≥ 20 µM
[39]
  Kd: ≥ 20 µM
[40]
  Kd: ≥ 20 µM
[41]
  Kd: 0.0097 µM
[42]
  Kd: ≥ 20 µM
[43]
  Kd: ≥ 20 µM
[44]
  Kd: ≥ 20 µM
[45]
  Kd: ≥ 20 µM
[46]
  Kd: ≥ 20 µM
[47]
  Kd: ≥ 20 µM
